Experimental data reported in article PMC6353898 (Scientific Reports, 2019).
Ends that are not written are not given here. * marks the point of attachment. FITC = O=C1OC2(c3ccc(O)cc3Oc3cc(O)ccc32)c2ccc(NC(=S)*)cc21; Ahx = NCCCCCC(=O)O

Molecular target: T1, EGFR on A431 and MDA MB 468 cells (human (endogenous in A431 and MDA MB …, UniProt P00533 25-1210))
T1 construct: also called Epidermal growth factor receptor; EGFR overexpressing cells; source: endogenous, overexpressed on A431 and MDA MB 468 cells
Assay: flow cytometry on cells; A431, MDA MB 468 and HEK 293 cells; FITC labeled peptides 10 µM in HBSS, 37 °C, 15 minutes; washed, trypsinized; mean fluorescence intensity
Conditions: one partner purified

B1: FITC conjugated Pep11 (designed binder)
peptide: {FITC-Ahx}-WSGENGPGFYDYEA
notes: Pep11, FITC labelled; also called FITC-Pep11; source: synthetic peptide (solid phase, Fmoc chemistry, HPLC purified)
fold fluorescence against the other peptides: 1.5 fold
